± gives the standard error.
test: background-corrected fluorescence of 3'-dye-labeled ssDNA relative to brightest sequence (3'-GCGCG) (fraction); higher = brighter dye fluorescence (less quenching); details: dye: Cy3 (3' terminal)
Method in brief: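 Subtracting background from unlabeled oligos and scaling to the brightest sequence gave the reported fluorescence. Single-stranded DNA bearing a 3' Cy3 or Cy5 dye next to each of 1024 permuted pentamers was assembled on glass slides by light-directed phosphoramidite synthesis. Following a 2 h r.t. acetonitrile wash, slides were scanned at 532 or 635 nm before and after overnight ethylenediamine/ethanol deprotection, and values were averaged over 10 features per array and at least 3 syntheses.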

Row | Sequence | background-corrected fluorescence
1 | TTTTTTCATGCTCATGCTGCTTTTTTTTTTTTTTTGAGAA [AAGAG] | 0.645 ± 0.032
2 | TTTTTTCATGCTGAGCAGCATTTTTTTTTTTTTTTGACTT [TTCAG] | 0.501 ± 0.016
3 | TTTTTTCATGCTGAGCATCATTTTTTTTTTTTTTTGACTG [GTCAG] | 0.511 ± 0.03
4 | TTTTTTCATGCTGAGCATGATTTTTTTTTTTTTTTGACTC [CTCAG] | 0.419 ± 0.021
5 | TTTTTTCATGCTGAGCATGCTTTTTTTTTTTTTTTGACTA [ATCAG] | 0.491 ± 0.021
6 | TTTTTTCATGCTGATCAGCATTTTTTTTTTTTTTTGACGT [TGCAG] | 0.601 ± 0.016
7 | TTTTTTCATGCTGATCATCATTTTTTTTTTTTTTTGACGG [GGCAG] | 0.65 ± 0.026
8 | TTTTTTCATGCTGATCATGATTTTTTTTTTTTTTTGACGC [CGCAG] | 0.577 ± 0.062
9 | TTTTTTCATGCTGATCATGCTTTTTTTTTTTTTTTGACGA [AGCAG] | 0.642 ± 0.026
10 | TTTTTTCATGCTGATGAGCATTTTTTTTTTTTTTTGACCT [TCCAG] | 0.453 ± 0.026
11 | TTTTTTCATGCTGATGATCATTTTTTTTTTTTTTTGACCG [GCCAG] | 0.524 ± 0.032
12 | TTTTTTCATGCTGATGATGATTTTTTTTTTTTTTTGACCC [CCCAG] | 0.387 ± 0.0053
13 | TTTTTTCATGCTGATGATGCTTTTTTTTTTTTTTTGACCA [ACCAG] | 0.499 ± 0.022
14 | TTTTTTCATGCTGATGCGCATTTTTTTTTTTTTTTGACAT [TACAG] | 0.536 ± 0.019
15 | TTTTTTCATGCTGATGCTCATTTTTTTTTTTTTTTGACAG | 0.547 ± 0.023
16 | TTTTTTCATGCTGATGCTGATTTTTTTTTTTTTTTGACAC [CACAG] | 0.42 ± 0.0058
17 | TTTTTTCATGCTGATGCTGCTTTTTTTTTTTTTTTGACAA [AACAG] | 0.537 ± 0.032
18 | TTTTTTCATGCTGCGCAGCATTTTTTTTTTTTTTTGAATT [TTAAG] | 0.5465 ± 0.0052
19 | TTTTTTCATGCTGCGCATCATTTTTTTTTTTTTTTGAATG [GTAAG] | 0.489 ± 0.022
20 | TTTTTTCATGCTGCGCATGATTTTTTTTTTTTTTTGAATC [CTAAG] | 0.433 ± 0.031
21 | TTTTTTCATGCTGCGCATGCTTTTTTTTTTTTTTTGAATA [ATAAG] | 0.553 ± 0.025
22 | TTTTTTCATGCTGCTCAGCATTTTTTTTTTTTTTTGAAGT | 0.661 ± 0.012
23 | TTTTTTCATGCTGCTCATCATTTTTTTTTTTTTTTGAAGG [GGAAG] | 0.607 ± 0.026
24 | TTTTTTCATGCTGCTCATGATTTTTTTTTTTTTTTGAAGC [CGAAG] | 0.547 ± 0.024
25 | TTTTTTCATGCTGCTCATGCTTTTTTTTTTTTTTTGAAGA [AGAAG] | 0.6356 ± 0.0052
26 | TTTTTTCATGCTGCTGAGCATTTTTTTTTTTTTTTGAACT [TCAAG] | 0.5 ± 0.016

Row | Sequence | background-corrected fluorescence
27 | TTTTTTCATGCTGCTGATCATTTTTTTTTTTTTTTGAACG [GCAAG] | 0.541 ± 0.028
28 | TTTTTTCATGCTGCTGATGATTTTTTTTTTTTTTTGAACC [CCAAG] | 0.41 ± 0.033
29 | TTTTTTCATGCTGCTGATGCTTTTTTTTTTTTTTTGAACA [ACAAG] | 0.505 ± 0.013
30 | TTTTTTCATGCTGCTGCGCATTTTTTTTTTTTTTTGAAAT [TAAAG] | 0.574 ± 0.015
31 | TTTTTTCATGCTGCTGCTCATTTTTTTTTTTTTTTGAAAG | 0.574 ± 0.028
32 | TTTTTTCATGCTGCTGCTGATTTTTTTTTTTTTTTGAAAC [CAAAG] | 0.43 ± 0.023
33 | TTTTTTCATGCTGCTGCTGCTTTTTTTTTTTTTTTGAAAA [AAAAG] | 0.63 ± 0.012
34 | TTTTTTGAGCAGCAGCAGCATTTTTTTTTTTTTTTCTTTT | 0.494 ± 0.021
35 | TTTTTTGAGCAGCAGCATCATTTTTTTTTTTTTTTCTTTG [GTTTC] | 0.498 ± 0.024
36 | TTTTTTGAGCAGCAGCATGATTTTTTTTTTTTTTTCTTTC | 0.389 ± 0.014
37 | TTTTTTGAGCAGCAGCATGCTTTTTTTTTTTTTTTCTTTA [ATTTC] | 0.48 ± 0.016
38 | TTTTTTGAGCAGCATCAGCATTTTTTTTTTTTTTTCTTGT [TGTTC] | 0.604 ± 0.019
39 | TTTTTTGAGCAGCATCATCATTTTTTTTTTTTTTTCTTGG [GGTTC] | 0.631 ± 0.038
40 | TTTTTTGAGCAGCATCATGATTTTTTTTTTTTTTTCTTGC [CGTTC] | 0.481 ± 0.026
41 | TTTTTTGAGCAGCATCATGCTTTTTTTTTTTTTTTCTTGA [AGTTC] | 0.615 ± 0.027
42 | TTTTTTGAGCAGCATGAGCATTTTTTTTTTTTTTTCTTCT | 0.441 ± 0.027
43 | TTTTTTGAGCAGCATGATCATTTTTTTTTTTTTTTCTTCG [GCTTC] | 0.477 ± 0.0068
44 | TTTTTTGAGCAGCATGATGATTTTTTTTTTTTTTTCTTCC [CCTTC] | 0.345 ± 0.016
45 | TTTTTTGAGCAGCATGATGCTTTTTTTTTTTTTTTCTTCA [ACTTC] | 0.455 ± 0.027
46 | TTTTTTGAGCAGCATGCGCATTTTTTTTTTTTTTTCTTAT [TATTC] | 0.513 ± 0.029
47 | TTTTTTGAGCAGCATGCTCATTTTTTTTTTTTTTTCTTAG [GATTC] | 0.528 ± 0.014
48 | TTTTTTGAGCAGCATGCTGATTTTTTTTTTTTTTTCTTAC [CATTC] | 0.404 ± 0.026
49 | TTTTTTGAGCAGCATGCTGCTTTTTTTTTTTTTTTCTTAA [AATTC] | 0.562 ± 0.019
50 | TTTTTTGAGCATCAGCAGCATTTTTTTTTTTTTTTCTGTT [TTGTC] | 0.541 ± 0.023
51 | TTTTTTGAGCATCAGCATCATTTTTTTTTTTTTTTCTGTG [GTGTC] | 0.559 ± 0.039
